Reference: IntAct's records for PubMed 16004875

B1: Vesicle-associated membrane protein-associated protein A (Rattus norvegicus (Rat)), Q9Z270 (parent)
chain: MASASGAMAKHEQILVLDPPSDLKFKGPFTDVVTTNLKLQNPSDRKVCFKVKTTAPRRYCVRPNSGVIDPGSIVTVSVMLQPFDYDPNEKSKHKFMVQTIFAPPNISDMEAVWKEAKPDELMDSKLRCVFEMPNENDKLNDMEPSKAVPLNASKQDGPLPKPHSVSLNDTETRKLMEECKRLQGEMMKLSEENRHLRDEGLRLRKVAHSDKPGSTSAVSFRDNVTSPLPSLLVVIAAIFIGFFLGKFIL
partner: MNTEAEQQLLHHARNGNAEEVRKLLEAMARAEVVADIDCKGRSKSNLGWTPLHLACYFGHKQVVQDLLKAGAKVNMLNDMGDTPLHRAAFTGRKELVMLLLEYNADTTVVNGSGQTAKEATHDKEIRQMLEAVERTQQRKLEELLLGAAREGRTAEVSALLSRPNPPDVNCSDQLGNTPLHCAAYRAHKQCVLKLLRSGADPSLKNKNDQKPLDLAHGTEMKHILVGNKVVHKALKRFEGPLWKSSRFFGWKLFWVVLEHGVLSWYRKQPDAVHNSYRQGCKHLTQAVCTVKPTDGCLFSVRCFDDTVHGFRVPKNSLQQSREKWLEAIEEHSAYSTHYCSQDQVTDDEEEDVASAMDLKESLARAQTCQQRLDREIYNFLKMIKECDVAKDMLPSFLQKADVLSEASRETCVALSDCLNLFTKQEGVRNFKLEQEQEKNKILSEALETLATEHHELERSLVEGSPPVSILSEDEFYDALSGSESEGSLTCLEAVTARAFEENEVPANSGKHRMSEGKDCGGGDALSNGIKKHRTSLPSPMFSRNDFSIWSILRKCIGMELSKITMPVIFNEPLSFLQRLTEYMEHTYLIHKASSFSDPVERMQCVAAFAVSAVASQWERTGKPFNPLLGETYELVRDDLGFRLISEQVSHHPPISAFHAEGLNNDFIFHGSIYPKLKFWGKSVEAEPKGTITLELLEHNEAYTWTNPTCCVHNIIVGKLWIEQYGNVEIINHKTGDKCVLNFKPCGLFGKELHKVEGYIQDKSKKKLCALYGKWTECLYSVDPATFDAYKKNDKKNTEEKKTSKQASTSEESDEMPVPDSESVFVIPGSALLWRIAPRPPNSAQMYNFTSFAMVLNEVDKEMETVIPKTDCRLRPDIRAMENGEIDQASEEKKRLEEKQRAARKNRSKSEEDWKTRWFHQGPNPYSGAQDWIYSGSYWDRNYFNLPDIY
B2: Vesicle-associated membrane protein-associated protein SCS2 (Saccharomyces cerevisiae), P40075 (parent)
chain: MSAVEISPDVLVYKSPLTEQSTEYASISNNSDQTIAFKVKTTAPKFYCVRPNAAVVAPGETIQVQVIFLGLTEEPAADFKCRDKFLVITLPSPYDLNGKAVADVWSDLEAEFKQQAISKKIKVKYLISPDVHPAQNQNIQENKETVEPVVQDSEPKEVPAVVNEKEVPAEPETQPPVQVKKEEVPPVVQKTVPHENEKQTSNSTPAPQNQIKEAATVPAENESSSMGIFILVALLILVLGWFYR
partner: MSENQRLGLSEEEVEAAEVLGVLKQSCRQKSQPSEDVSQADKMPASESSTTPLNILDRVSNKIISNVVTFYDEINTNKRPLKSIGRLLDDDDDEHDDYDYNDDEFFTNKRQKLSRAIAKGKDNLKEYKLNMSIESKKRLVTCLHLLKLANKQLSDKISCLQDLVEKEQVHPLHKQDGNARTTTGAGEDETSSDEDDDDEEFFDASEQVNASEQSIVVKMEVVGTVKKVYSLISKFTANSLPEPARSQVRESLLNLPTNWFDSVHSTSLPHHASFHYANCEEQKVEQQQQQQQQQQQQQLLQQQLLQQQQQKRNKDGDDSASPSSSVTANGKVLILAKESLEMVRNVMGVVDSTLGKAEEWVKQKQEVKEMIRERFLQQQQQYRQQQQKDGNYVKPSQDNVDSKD

Variants of: B1
Conditions: with osbl1_rat Osbpl1a

Row | Variant | effect of a mutation on the interaction
1 | MASASGAMAKHEQILVLDPPSDLKFKGPFTDVVTTNLKLQNPSDRKVCFKVKTTAPRRYCVRPNSGVIDPGSIVTVSVMLQPFDYDPNEKSKHDFDVQTIFAPPNISDMEAVWKEAKPDELMDSKLRCVFEMPNENDKLNDMEPSKAVPLNASKQDGPLPKPHSVSLNDTETRKLMEECKRLQGEMMKLSEENRHLRDEGLRLRKVAHSDKPGSTSAVSFRDNVTSPLPSLLVVIAAIFIGFFLGKFIL [K94D;M96D] | disrupting interaction

Variants of: B2
Conditions: with opi1_yeast OPI1, P21957

Row | Variant | effect of a mutation on the interaction
2 | MSAVEISPDVLVYKSPLTEQSTEYASISNNSDQTIAFKVKTTAPKFYCVRPNAAVVAPGETIQVQVIFLGLTEEPAADFKCRDDFDVITLPSPYDLNGKAVADVWSDLEAEFKQQAISKKIKVKYLISPDVHPAQNQNIQENKETVEPVVQDSEPKEVPAVVNEKEVPAEPETQPPVQVKKEEVPPVVQKTVPHENEKQTSNSTPAPQNQIKEAATVPAENESSSMGIFILVALLILVLGWFYR [K84D;L86D] | disrupting interaction
